These results are taken from article PMC9330073, “Cargo Recognition Mechanisms of Yeast Myo2 Revealed by AlphaFold2-Powered Protein Complex Prediction” (Biomolecules, 2022).

For one experiment, the target named is T1, Myo2-GTD L1331S (Saccharomyces cerevisiae (strain S288c)).
T1 chain: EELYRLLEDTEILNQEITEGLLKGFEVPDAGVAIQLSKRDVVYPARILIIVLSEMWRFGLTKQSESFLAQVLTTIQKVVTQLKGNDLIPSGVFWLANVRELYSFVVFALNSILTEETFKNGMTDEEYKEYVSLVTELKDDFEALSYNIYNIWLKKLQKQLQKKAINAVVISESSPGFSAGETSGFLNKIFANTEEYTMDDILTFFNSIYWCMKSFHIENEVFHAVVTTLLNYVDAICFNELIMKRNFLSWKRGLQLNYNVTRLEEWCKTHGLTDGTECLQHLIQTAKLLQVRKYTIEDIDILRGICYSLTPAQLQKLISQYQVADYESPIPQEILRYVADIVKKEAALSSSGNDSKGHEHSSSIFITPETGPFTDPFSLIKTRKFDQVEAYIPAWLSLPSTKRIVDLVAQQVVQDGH
In words: ITC. (Isothermal titration calorimetry measures the heat released or taken up as one component is titrated into another.)

Another experiment deals with T2, Myo2-GTD W1407A (Saccharomyces cerevisiae (strain S288c)).
T2 chain: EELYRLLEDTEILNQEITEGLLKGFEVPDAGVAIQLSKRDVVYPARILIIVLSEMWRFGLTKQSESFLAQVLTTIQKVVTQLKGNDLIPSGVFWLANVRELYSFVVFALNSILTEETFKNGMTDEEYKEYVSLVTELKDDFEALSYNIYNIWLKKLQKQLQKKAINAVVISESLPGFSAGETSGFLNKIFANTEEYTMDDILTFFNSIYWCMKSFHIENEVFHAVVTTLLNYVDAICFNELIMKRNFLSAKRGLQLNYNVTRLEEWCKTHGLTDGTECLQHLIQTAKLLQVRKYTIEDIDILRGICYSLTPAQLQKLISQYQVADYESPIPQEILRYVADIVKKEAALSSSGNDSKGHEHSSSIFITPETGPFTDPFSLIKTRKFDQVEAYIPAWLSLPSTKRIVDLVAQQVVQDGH
The experiment is described as follows: ITC.

For experiment [1], the target named is T3, Myo2-GTD (globular tail domain of Myo2) (Saccharomyces cerevisiae (strain S288c), UniProt P19524 1152-1574).
T3 construct: Myo2 (class V myosin), S. cerevisiae, C-terminal globular tail domain (GTD); Named Trx-Myo2-GTD in the light scattering experiment; also called Trx-Myo2-GTD; source: E. coli BL21(DE3), purified (Ni2+-NTA, size exclusion chromatography); not shown: Trx, N-terminal, kept
T3 sequence (looked up): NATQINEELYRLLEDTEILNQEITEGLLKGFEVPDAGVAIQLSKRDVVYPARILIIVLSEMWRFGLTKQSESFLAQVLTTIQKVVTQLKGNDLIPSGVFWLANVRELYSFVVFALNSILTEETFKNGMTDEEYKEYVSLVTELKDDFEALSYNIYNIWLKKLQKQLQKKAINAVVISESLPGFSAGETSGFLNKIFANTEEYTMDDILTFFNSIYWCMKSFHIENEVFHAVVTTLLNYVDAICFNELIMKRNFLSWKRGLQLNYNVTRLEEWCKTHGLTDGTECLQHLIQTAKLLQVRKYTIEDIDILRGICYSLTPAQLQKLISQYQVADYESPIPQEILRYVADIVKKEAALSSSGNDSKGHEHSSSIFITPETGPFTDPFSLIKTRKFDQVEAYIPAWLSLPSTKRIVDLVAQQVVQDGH
The experiment is described as follows: ITC; 200 μM Vac17-MIS in the syringe titrated into 20 μM Myo2-GTD in the cell, 25 °C; one-site binding model. To be noted: both partners purified.

Another experiment addresses T4, Myo2-GTD Y1303A (Saccharomyces cerevisiae).
T4 chain: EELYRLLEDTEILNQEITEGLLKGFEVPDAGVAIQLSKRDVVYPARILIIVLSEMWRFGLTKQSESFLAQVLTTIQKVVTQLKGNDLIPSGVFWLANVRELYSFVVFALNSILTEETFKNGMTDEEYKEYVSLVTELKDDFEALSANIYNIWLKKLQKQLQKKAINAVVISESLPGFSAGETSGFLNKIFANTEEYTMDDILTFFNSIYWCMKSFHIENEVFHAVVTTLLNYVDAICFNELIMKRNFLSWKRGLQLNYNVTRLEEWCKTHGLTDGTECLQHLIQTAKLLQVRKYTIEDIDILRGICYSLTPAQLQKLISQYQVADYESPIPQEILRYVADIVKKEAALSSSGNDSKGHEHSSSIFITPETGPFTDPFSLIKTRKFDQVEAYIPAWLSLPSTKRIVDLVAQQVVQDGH
In words: ITC.

In a further experiment the target is T5, Myo2-GTD D1297N (Saccharomyces cerevisiae).
T5 chain: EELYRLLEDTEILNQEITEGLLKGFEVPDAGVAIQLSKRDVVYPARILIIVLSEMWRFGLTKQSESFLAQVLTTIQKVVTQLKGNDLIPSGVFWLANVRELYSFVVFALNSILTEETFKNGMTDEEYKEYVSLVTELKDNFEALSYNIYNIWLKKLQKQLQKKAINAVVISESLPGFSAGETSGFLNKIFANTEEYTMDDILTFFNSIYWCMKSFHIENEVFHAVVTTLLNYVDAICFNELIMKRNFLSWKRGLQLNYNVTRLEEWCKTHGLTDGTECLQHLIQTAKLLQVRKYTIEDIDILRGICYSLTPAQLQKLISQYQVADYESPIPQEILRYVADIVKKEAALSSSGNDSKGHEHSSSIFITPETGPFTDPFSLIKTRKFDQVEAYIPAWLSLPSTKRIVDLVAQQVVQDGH
The experiment is described as follows: ITC.

Experiment [2] deals with T6, Myo2-GTD (globular tail domain of Myo2) (Saccharomyces cerevisiae (strain S288c), UniProt P19524 1152-1574).
T6 chain: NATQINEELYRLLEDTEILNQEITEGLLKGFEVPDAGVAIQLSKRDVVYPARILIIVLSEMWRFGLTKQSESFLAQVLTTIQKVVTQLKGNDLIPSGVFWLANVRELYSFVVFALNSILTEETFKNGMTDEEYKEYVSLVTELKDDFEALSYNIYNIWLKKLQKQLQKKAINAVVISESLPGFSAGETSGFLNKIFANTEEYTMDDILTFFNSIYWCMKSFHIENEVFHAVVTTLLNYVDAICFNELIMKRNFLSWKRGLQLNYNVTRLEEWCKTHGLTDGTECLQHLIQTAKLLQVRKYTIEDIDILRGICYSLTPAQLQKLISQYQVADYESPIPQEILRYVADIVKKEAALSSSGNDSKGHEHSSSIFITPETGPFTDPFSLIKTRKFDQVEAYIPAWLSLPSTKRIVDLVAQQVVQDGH
The experiment is described as follows: ITC.

Experiment [3] deals with T3, Myo2-GTD (globular tail domain of Myo2). The experiment is described as follows: ITC; 500 μM Myo2-GTD in the syringe titrated into 50 μM Kar9-MIS or Pea2-MIS in the cell, 25 °C; one-site binding model. To be noted: both partners purified.

Usually Kd stands for the equilibrium constant for the complex coming apart.

B1: Vac17-MIS (Myo2-interacting sequence of Vac17) (domain or fragment, Saccharomyces cerevisiae (strain S288c), UniProt P25591 112-157, looked up)
chain: PNEAPNDSPQSQSTRSSLGSFQPRPLKIIERQRLCMVTPSKPPKKS
notes: Vac17 (vacuole-related protein 17), S. cerevisiae, region containing residues 112-157 (MIS); Named Trx-tagged in the light scattering; also called Trx-Vas17-MIS; Vac17-MIS wild-type; source: E. coli BL21(DE3), purified (Ni2+-NTA, size exclusion chromatography); not shown: Trx, N-terminal, kept
Regarding B1, the results for the Kd (with Myo2-GTD L1331S; with Myo2-GTD W1407A; in experiment [1]) were 0.41 µM, 0.45 µM and about 0.3 µM, respectively.

B2: GST-Pea2-CC1 (GST-tagged Pea2-CC1; dimer) (domain or fragment)
chain: AIQEEDSSKKLEELETAFSDLQLAHNFLTKQFENDRAEYVQDIEKLTRTNRELQDKLLNNHSNLSKTEKKLHELEQENKELEKANNKLNSSRH
modifications: N-terminal GST (pGEX-4T-1) left out; GST drives the dimerization
B2: the Kd with Myo2-GTD Y1303A worked out at 11 µM; with Myo2-GTD D1297N, 10 µM; in experiment [2], 11 µM.

B3: Pea2-CC1 (Trx-tagged; monomer) (domain or fragment, Saccharomyces cerevisiae (strain S288c), UniProt P40091 235-327, looked up)
chain: AIQEEDSSKKLEELETAFSDLQLAHNFLTKQFENDRAEYVQDIEKLTRTNRELQDKLLNNHSNLSKTEKKLHELEQENKELEKANNKLNSSRH
notes: Pea2 (polarisome subunit), S. cerevisiae, conserved coiled coil CC1 containing residues 235-327; Named Trx-tagged in the light scattering; also called Trx-tagged Pea2-CC1; Pea2-CC1 monomer; source: E. coli BL21(DE3), purified (Ni2+-NTA, size exclusion chromatography); not shown: Trx, N-terminal, kept
Molecule B3 came in with a Kd in experiment [3] of about 50 µM.
